The source of these data is patent US7097988B1 (ADVANCED RESEARCH AND TECHNOLOGY INSTITUTE, dated 2006).

For experiment [1], the target named is T1, novel member of the opioid receptor gene family (SEQ ID NO: 17) (Rattus norvegicus, UniProt P35370).
T1 construct: mRNA of this clone was synthesized by in vitro transcription and coinjected into Xenopus oocytes; expressed in transfected cells; host or cells: Xenopus oocytes (mRNA injection)
The class given is cell-based.

Experiment [2] concerns the target human μ opioid receptor hμOR1 (Homo sapiens, UniProt P35372, D51N).
The target in the next experiment is Mu1 site. The settings on record: Clark et al., 1988; cited from earlier work.
For another experiment, the target named is Mu2 site. The settings on record: Clark et al., 1988; cited from earlier work.
The target of experiment [3] is μ opioid receptor (PL-17 sites), guinea pig brain membranes. The settings on record: read-out: affinity (displacement of radiolabeled PL-17); Kawasaki et al., 1990; cited from earlier work.
Experiment [4] has as its target mu opioid receptor (DAMGO sites). Conditions: read-out: affinity (displacement of radiolabeled DAMGO); Vaughn and Taylor, 1989; cited from earlier work.
Experiment [5] concerns the target T2, human μ receptor (adenylyl cyclase) (Homo sapiens, UniProt P35372).
T2 construct: the cDNA containing the open reading frame of the receptor was cloned downstream of the human cytomegalovirus promoter in the mammalian expression vector pcDNA3; expressed in transfected cells; host or cells: COS-7 (transient)
The class given is cell-based.

Experiment [6] concerns the target T3, rat μ opioid receptor coupled to G protein-activated K+ channel (Rattus norvegicus, UniProt P33535, V245I).
T3 construct: A cDNA clone, MOR-1, containing the protein coding region of a rat μ opioid receptor has been described; expressed in transfected cells; host or cells: Xenopus oocytes (mRNA injection)
Format: cell-based.

Experiment [7] concerns the target T4, rat μ-opioid receptor MOR-1 (Rattus norvegicus, UniProt P33535, V245I).
T4 construct: A 1.4-kilobase HindIII fragment encompassing the open reading frame from the cDNA encoding MOR-1 was cloned; expressed in transfected cells; host or cells: COS-7
The experiment in a line: biochemical. Format: binding.

Experiment [8] addresses T5, cloned human μ opioid receptor (Homo sapiens, UniProt P35372).
T5 construct: the cDNA containing the open reading frame of the receptor was cloned downstream of the human cytomegalovirus promoter in the mammalian expression vector pcDNA3; expressed in transfected cells; host or cells: COS-7 (transient)
The settings on record: read-out: Binding potencies (Ki-nM), human μ receptor, [3H]DAMGO.

The target of experiment [9] is T6, rat mu opioid receptor MOR-1 (rat, UniProt P33535 1-398).
T6 construct: Full-length receptor expressed from the cDNA in COS-7 cells (membranes), stably in CHO cells (membranes, whole cells) or in Xenopus oocytes; also called rat µ-opioid receptor; cloned rat µ receptor
As to the kind of experiment: displacement of 0.25 nM [3H]diprenorphine; membranes of COS-7 cells expressing MOR-1.

Experiment [10] concerns the target T7, cloned human mu opioid receptor (human, UniProt P35372 1-400).
T7 construct: Full-length receptor expressed from pcDNA3 in COS-7 cells (membranes) or from mRNA in Xenopus oocytes; also called human µ opioid receptor; human µ receptor
The experiment in a line: inhibition of 2 nM [3H]DAMGO binding; membranes of COS-7 cells expressing the human µ receptor.

The target in experiment [11] is T6, rat mu opioid receptor MOR-1. As to the kind of experiment: cell-based or functional assay.
Experiment [12] has the same target. As to the kind of experiment: saturation binding; membranes of stably transfected CHO cells.
Experiment [13] has the same target. As to the kind of experiment: [3H]DAMGO binding to COS-7 membranes with 100 mM GTPgS in the assay.
In experiment [14] the target is T7, cloned human mu opioid receptor. The description is as above.
The target in experiment [15] is T6, rat mu opioid receptor MOR-1. As to the kind of experiment: saturation binding of [3H]DAMGO; membranes of stably transfected CHO cells.
Experiment [16] concerns the target T7, cloned human mu opioid receptor. As to the kind of experiment: saturation binding; membranes of COS-7 cells expressing the human µ receptor.
Experiment [17] addresses T6, rat mu opioid receptor MOR-1. The experiment in a line: [3H]DAMGO binding to membranes of COS-7 cells pretreated with pertussis toxin.
Experiment [18] deals with T7, cloned human mu opioid receptor. Described as above.
The target is the same in experiment [19]. The experiment in a line: saturation binding, Scatchard analysis; membranes of COS-7 cells expressing the human µ receptor.
The target in experiment [20] is T6, rat mu opioid receptor MOR-1. The experiment in a line: whole-oocyte binding of 1 nM ^3H-DAMGO; oocytes injected with mRNAs for the µ receptor and the K^+ channel.
The target in experiment [21] is T8, human μ opioid receptor coupled to G protein-activated K+ channel (Homo sapiens, UniProt P35372).
T8 construct: Messenger RNAs encoding both proteins (Chen and Yu, 1994) were generated by in vitro transcription and injected into Xenopus oocytes; expressed in transfected cells; host or cells: Xenopus laevis oocytes (mRNA injection)
Format: cell-based.

For experiment [22], the target named is T7, cloned human mu opioid receptor. The experiment in a line: displacement of […] [3H]DAMGO; membranes of COS-7 cells expressing the human µ receptor.
The target in another experiment is T9, rat μ opioid receptor (Rattus norvegicus, UniProt P33535, V245I).
T9 construct: A plasmid containing a 1.4 kb cDNA for the rat μ opioid receptor in a mammalian expression vector pRc/CMV has been described; expressed in transfected cells
Format: binding.

For experiment [23], the target named is T6, rat mu opioid receptor MOR-1. As to the kind of experiment: inhibition of [3H]DAMGO binding; membranes of COS-7 cells expressing the rat µ receptor.

Where two headings read alike, the source gives them in different places. Ends that are not written are not given here.

T1 sequence (P35370 whole entry): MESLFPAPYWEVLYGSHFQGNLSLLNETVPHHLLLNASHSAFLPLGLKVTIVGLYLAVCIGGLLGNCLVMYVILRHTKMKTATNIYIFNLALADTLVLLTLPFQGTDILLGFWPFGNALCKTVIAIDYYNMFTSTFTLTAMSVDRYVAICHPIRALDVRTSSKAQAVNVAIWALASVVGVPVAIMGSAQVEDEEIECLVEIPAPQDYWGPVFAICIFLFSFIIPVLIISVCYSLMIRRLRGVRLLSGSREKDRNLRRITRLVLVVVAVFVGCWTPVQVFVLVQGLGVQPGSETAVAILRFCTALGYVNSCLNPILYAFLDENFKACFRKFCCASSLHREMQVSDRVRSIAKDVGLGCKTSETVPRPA

`CC1(C)SSC(C)(C)[C@@H](NC(=O)[C@@H](N)Cc2ccc(O)cc2)C(=O)NCC(=O)N[C@@H](Cc2ccccc2)C(=O)N[C@H]1C(=O)O` [DPDPE, [D-Pen^2.5]-enkephalin]: the “induction of potassium conductance (in words)” value in experiment [1] is given as “no potassium conductance was induced”.
In the case of Dynorphin A, the “difference in Ki between the inventor's clone and the clone of Wang et al.” value in experiment [2] is on record as “over 100 fold”. In addition, the Ki is 0.7 nM at Mu1 site, 2.2 nM on Mu2 site, 5 nM in experiment [3] and 3 nM in experiment [4].
Regarding `CN1CC[C@]23CCCC[C@H]2[C@H]1Cc1ccc(O)cc13` [levorphanol], the “effect on forskolin-stimulated cAMP accumulation (in words)” value in experiment [5] is “decreased cAMP accumulation”.
Turning to `Nc1ncnc2c1nc(Sc1ccc(Cl)cc1)n2[C@@H]1O[C@@H]2COP(=O)(O)O[C@H]2[C@H]1O` [8-CPT-cAMP, 8-chlorophenylthio-cAMP], in experiment [6], the “effect of kinase modulators on desensitization (in words)” value was “completely abolished the desensitization”.
For `COC(=O)/C=C/C(=O)N[C@@H]1CC[C@@]2(O)[C@H]3Cc4ccc(O)c5c4[C@@]2(CCN3CC2CC2)[C@H]1O5` [β-funaltrexamine], the “Ki values (in words)” value in experiment [7] is listed as “nanomolar range”. Also, the Ki was 1.3 ± 0.1 nM in [7] (read-out: Ki values) and 0.29 nM in [8].
Turning to `COc1cccc2c1[C@]13CCN(CC4CC4)[C@H](C2)[C@]1(OC)CCC(=O)C3` [Cyprodime], in experiment [7], the Ki is 9.1 ± 2.8 nM and the “Ki values (in words)” value is given as “nanomolar range”.
In the case of cyclic somatostatin (peptide), the IC50 in [9] came out at 11 µM. In other words, the double-digit micromolar range.
With “CTOP, D-Phe-Cys-Tyr-D-Trp-Orn-Thr-Pen-Thr-NH2 (peptide)”, the Ki in experiment [10] was found to be 3.9 nM.
As to “[D-Ala^2, N-Me-Phe^4, Gly-ol^5]-enkephalin (peptide)”, in experiment [11], the DAMGO/control (cAMP with forskolin plus DAMGO over forskolin only), morphine-treated cells came to 42.4%; the DAMGO/control (cAMP with forskolin plus DAMGO over forskolin only), naive cells amounted to 71.9%; the EC50 of inhibition of forskolin-stimulated intracellular cAMP, naive transfected CHO cells was found to be 30 nM; the GTPase activity of G proteins, stably transfected CHO cells, 10 µM DAMGO was found to be 30%. In experiment [11], the barium current through a voltage-activated calcium channel, Xenopus oocytes with the channel and the mu opioid receptor, 1 µM DAMGO is > 80 % reduction; the intracellular cAMP level after forskolin, COS-7 cells expressing MOR-1, 100 nM DAGO turned out to be 18.1 % reduction; the intracellular cAMP level, Forskolin + DAMGO (1 µM), morphine-treated cells (fmol/1 × 10^3 cells) was determined as 38.9; the intracellular cAMP level, Forskolin + DAMGO (1 µM), naive cells (fmol/1 × 10^3 cells) was 25.6. Besides, in [11], the low Km GTPase activity, membranes of stably transfected CHO cells, 1 µM DAMGO worked out at 33%; the maximal inhibition of intracellular cAMP, naive transfected CHO cells came out at 25%; the maximal inhibition of intracellular cAMP, transfected CHO cells treated with morphine for 24 hr worked out at 60%. For the same molecule, the Kd in experiment [12] came to 1 nM. The decrease of specific labelling by GTPgS in experiment [13] came to 55%. In experiment [14], this molecule yielded a decrease of specific labelling by GTPgS of 65%. In experiment [15], this molecule yielded a Bmax (fmol/mg membrane protein) of 630 and a Kd of 0.47 nM. In [16], this molecule yielded a Bmax (fmol/mg membrane protein) of 381. Further, the decrease of labelling after PTX-pretreatment in experiment [17] was 42%. In addition, the decrease of labelling after PTX-pretreatment in experiment [18] came out at 79%. Besides, the Ki in [9] is 2.8 nM. Further, in [19], the Bmax was determined as 232 fmol/mg and the Kd was 1 nM. The specific binding in experiment [20] was determined as 1 fmol/oocyte.
Regarding `CC1=C[C@H]2[C@@]3(O)[C@H](C)[C@@H](O)[C@]4(O)[C@H]([C@@H]3C=C(CO)C[C@@]2(O)C1=O)C4(C)C` [4α-phorbol], in experiment [21], the “second DAMGO response relative to the first (peak current)” value is 87%+2%.
With [D-Pen^2,5]-enkephalin (peptide), in experiment [22], the IC50 is > 1000 nM.
`Nc1nc2c(ncn2[C@@H]2O[C@H](COP(=O)(O)OP(=O)(O)NP(=O)(O)O)[C@@H](O)[C@H]2O)c(=O)[nH]1` [Gp(NH)pp]: the “effect on specific [3H]DAMGO binding (in words)” value on rat μ opioid receptor is on record as “decrease the specific binding”.
Consider Leu-enkephalin, for which, in experiment [5], the “effect on forskolin-stimulated cAMP accumulation (in words)” value is given as “significantly reduced”.
Turning to `Nc1nc2c(ncn2[C@@H]2O[C@H](COP(=O)(O)OP(=O)(O)OP(=O)(O)O)[C@@H](O)[C@H]2O)c(=O)[nH]1` [GTP], the “effect on specific [3H]DAMGO binding (in words)” value at rat μ opioid receptor is recorded as “decrease the specific binding”.
For the molecule “GGFMTSEKSQTPLVTLFKNAIIKNAYKKGE [des-Tyr^1-β-endorphin]”, in [8], the Ki is > 1000 nM.
For the molecule `CC(C)C[C@H](NC(=O)[C@H](Cc1ccccc1)NC(=O)CNC(=O)[C@@H](CO)NC(=O)[C@@H](N)Cc1ccc(O)cc1)C(=O)N[C@H](C(=O)O)[C@@H](C)O` [DSLET, [D-Ser, Leu^5, Thr^6]-enkephalin], in experiment [7], the Ki amounted to 314 nM.
Regarding `CCCCCCCCCCCCCC(=O)O[C@@H]1[C@@H](C)[C@@]2(O)[C@@H](C=C(CO)C[C@]3(O)C(=O)C(C)=C[C@@H]23)[C@@H]2C(C)(C)[C@]12OC(C)=O` [PMA, phorbol 12-myristate 13-acetate], the “second DAMGO response relative to the first (peak current)” value in experiment [21] came to 29%+7%. Moreover, the “effect of kinase modulators on desensitization (in words)” value in experiment [6] is listed as “further reduced the second response”.

B1: β-endorphin (peptide, UniProt P01189 237-267, looked up)
peptide: YGGFMTSEKSQTPLVTLFKNAIIKNAYKKGE
notes: mature
With B1, in experiment [23], the Ki worked out at 1.7 nM.

B2: Somatostatin-1-14 (peptide, UniProt P61278 103-116, looked up)
peptide: AGCKNFFWKTFTSC
notes: mature
With B2, the IC50 in [9] stood at 730 µM.

The IC50 is the midpoint of a concentration-inhibition curve. Low values mean inhibition by little substance, high ones a need for much substance. Usually Kd stands for the free concentration of one partner at which half of the binding sites on the other are occupied at equilibrium, for simple one-to-one binding. Read a high Kd as lower affinity.
